Measurements reported in publication doi:10.1101/2025.03.24.645063 (2025).

Molecular target: CRBN/DDB1 complex (human | , UniProt Q96SW2 1-442; Q16531 1-1140, CoraFluor-1 label (on the complex, chain not told))
Assay: FRET; TR-FRET competitive displacement of thal-FITC

B1: UROD with C-terminal cyclic imide (recombinant UROD incubated with PCMT1) (natural protein)
chain: MEANGLGPQGFPELKNDTFLRAAWGEETDYTPVWCMRQAGRYLPEFRETRAAQDFFSTCRSPEACCELTLQPLRRFPLDAAIIFSDILVVPQALGMEVTMVPGKGPSFPEPLREEQDLERLRDPEVVASELGYVFQAITLTRQRLAGRVPLIGFAGAPWTLMTYMVEGGGSSTMAQAKRWLYQRPQASHQLLRILTDALVPYLVGQVVAGAQALQLFESHAGHLGPQLFNKFALPYIRDVAKQVKARLREAGLAPVPMIIFAKDGHFALEELAQAGYEVVGLDWTVAPKKARECVGKTVTLQGNLDPCALYASEEEIGQLVKQMLDDFGPHRYIANLGHGLYPDMDPEHVGAFVDAVHKHSRLLRQN
modifications: C-terminal cyclic imide on the C-terminal asparagine (N367), confirmed by mass spectrometry
Kd: 1500 nM
